The values that follow come from PMC4337669.

The series deals with H-NS (Escherichia coli). Briefly: EMSA. Conditions: 40 mM HEPES-KOH pH 8.0, 100 mM K-glutamate, 0.022% NP-40, 100 µg/ml BSA, 10% glycerol, 2 or 8 mM Mg aspartate, 20 °C 20 min; 3% native PAGE in 0.5x TBE + 2.5% ….

As to “λPR-bgl template (linear pMK110 PCR fragment)”, the K half was found to be 2 nM.
